The target in the assay is Aβ(1-42) fibrils 1-42 (Homo sapiens, UniProt P05067). Put plainly: SPR.

Ends that are not written are not given here.

Sequence of Aβ(1-42) fibrils 1-42 (P05067 1-42): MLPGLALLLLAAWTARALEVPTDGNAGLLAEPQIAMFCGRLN

B1: LPFFD peptide (peptide)
chain: LPFFD
Take B1: the dissociation constant (Kd) came out at 317 µM.

B2: AGuIX@PEG@LPFFD@Cy5.5 (peptide)
chain: LPFFD
modifications: also: conjugated to AGuIX nanoparticle via PEG, labelled with Cy5.5, attachment sites not given here
B2 registered a dissociation constant (Kd) of 261 µM.

The values above are taken from publication PMC4960888 (2016).
